Assay results: publication doi:10.1101/2021.11.02.466875
Where two headings read alike, the source gives them in different places.

Legend:
Test in all cases: BLI
[1] = molecular target: RapC (Bacillus velezensis SQR9)
[2] = molecular target: RapC (Bacillus velezensis SQR9); remark: listed apart in the source
[3] = molecular target: RapC (Bacillus velezensis SQR9); remark: listed apart in the source
[4] = molecular target: RapC (Bacillus velezensis SQR9); remark: listed apart in the source

ComA (natural protein)
Kd [1]: 26.8 nM
Kd [2]: 5.49 nM
Kd [3]: 8.69 nM
Kd [4]: 13.5 nM
